Assay results taken from US20170267738A1 (IMMATICS BIOTECHNOLOGIES, published 2017).

B1: TCR R20P1H7 (TCR, V domains shown)
V domain 1: EDQVTQSPEALRLQEGESSSLNCSYTVSGLRGLFWYRQDPGKGPEFLFTLYSAGEEKEKERLKATLTKKESFLHITAPKPEDSATYLCAVQGENSGYSTLTFGKGTMLLVSP
V domain 2: EAQVTQNPRYLITVTGKKLTVTCSQNMNHEYMSWYRQDPGLGLRQIYYSMNVEVTDKGDVPEGYKVSRKEKRNFPLILESPSPNQTSLYFCASSLGPGLAAYNEQFFGPGTRLTVLE
B2: TCR R10P2G12 (TCR, V domains shown)
V domain 1: AQKVTQAQTEISVVEKEDVTLDCVYETRDTTYYLFWYKQPPSGELVFLIRRNSFDEQNEISGRYSWNFQKSTSSFNFTITASQVVDSAVYFCALSEGNSGNTPLVFGKGTRLSVIA
V domain 2: DVKVTQSSRYLVKRTGEKVFLECVQDMDHENMFWYRQDPGLGLRLIYFSYDVKMKEKGDIPEGYSVSREKKERFSLILESASTNQTSMYLCASSLSSGSHQETQYFGPGTRLLVLE

Target: MHC/MAG-003 complex on target cells (human)
Assay: cell-based or functional assay

Row | Binder | EC50 (target peptide titration, IFN-γ release)
1 | B1 | ~10 nM
2 | B2 | ~10 nM
